Measured values as given in patent publication US20260117244A1, “INHIBITORY RNA FOR THE CONTROL OF PHYTOPATHOGENS” (priority 2021, published 2026).

Test system: E. necator
Test: SIGS, E. necator spore production on V. vinifera (whole plant and leaf disc assays)
Assay type: in vivo, Erysiphe necator
Details: for visual powdery mildew coverage and density: V. vinifera leaves, 9 days post infection, vs buffer alone
Source text: Spore suspension concentrations were normalized to the input tissue weight (g) before being normalized to the control.
Spore suspension concentrations were normalized to the input tissue weight (g) before being normalized to the control. CYP51 is included as a positive control gene required for growth. Error bars±SEM. *p<0.05 by Student's T-Test (unpaired, 2-tailed) compared to control.
With SIGS methods optimized and gene targets identified, we sought to translate these methods and targets to grape powdery mildew (FIG. 2). New long dsRNAs were designed for each target tested as there is significant sequence divergence between G. orontii MGH1 and E. necator c. First, procedures were optimized for the grapevine system by silencing CYP51. Spore production was reduced by 62% and 45% in grapevine whole plant and leaf disc assays, respectively when treated with long dsRNA against the same region of CYP51 as dsRNA-1 against G. orontii MGH1 CYP51 (FIG. 2; FIG. 7, panel a). […] We tested SIGS against the effective targets including AATF in the grapevine system, as we were interested in ascertaining whether they would show a statistically significant difference in grape powdery mildew spore production. […] The average reduction of powdery mildew spore production for SIGS against CYP51 and AATF was greater in E. necator compared to G. orontii (FIG. 4 and FIG. 7). One notable difference is G. orontii has 2 copies each of CYP51 and AATF while E. necator has 1 copy of each of these genes. SIGS against the other effective targets also were effective in reducing powdery mildew of grapevine (FIG. 7).
As the full G. orontii MGH1 OEC60/OEC61 is conserved in other powdery mildews (Table 6) and has the potential to interact with both TCP13 and TCP14, we tested whether findings in the G. orontii MGH1-Arabidopsis pathosystem can translate to an agriculturally important pathosystem, powdery mildew of grapevine. To do so, we identified an OEC60/OEC61 homolog in E. necator c (Jones et al., 2014) and designed a long dsRNA to target this gene in the same region effective for G. orontii. Targeting of OEC60/OEC61 in Erysiphe necator by SIGS reduces grape powdery mildew production on V. vinifera leaves to 71% of control treated plants (FIG. 12), similar to the reduction seen with the Arabidopsis powdery mildew (FIG. 10, panel d).

B1: E. necator AATF dsRNA: long dsRNA against E. necator AATF (target SEQ ID NO:197) (nucleic acid)
chain: TGATAGCGATCATGATAGATGCGACTCAAATTTTAGTAATAGGAATGACAAAGAGATTATTAAACGGTCTGAAATTCAAAGATTTATGGAAGAAGATCAAAAAGCAATATTATCAACTTTATCTCAAGCAGCAAAGGTAGATGCAGAAAAGGGAAGGGCAATTAAGTCACAACAAATGAGATTCGATTCTCTTCTAAATACGCGAATGGAGCTGCAGAAAGCTCTGATAGCAGTTAATTCTCTTACTACCTTTCAAGATGATAATTCTATTTTCTCCAAGGATAAGCCATACGAAGCAGC
modifications: misc_feature 1..300: note = Inhibitory double stranded RNA; listed as RNA
- average reduction in spore production (long dsRNA, assay format not stated (FIG. 7)): 53%

B2: E. necator OEC60/OEC61 dsRNA: long dsRNA against E. necator homolog of OEC60/OEC61 (target SEQ ID NO:199) (nucleic acid)
chain: CTGCTACTAGCTTTCATGGTATGAAACTCATTATTGGTGTTTTTATTGGTGAAACTGGTTGCTCTGGCGCTAAAGAGCAGGTGAACCACATCGTTAAATGGGGTAAATGGGATTTGGTAGAACTCATTGTGATCGGGAATGAGGCTCTGTTTAGTGGTCATGCGTCACCCGAAGAGTTAGCCGAATTTATTACCTCGACTAAAATCACCCTCAGATCAGC
modifications: misc_feature 1..220: note = Inhibitory double stranded RNA; listed as RNA
- effect on grapevine powdery mildew growth and reproduction / spore production (E. necator on V. vinifera, SIGS): reduces spore production
- grape powdery mildew spore production relative to control treated plants (V. vinifera leaf discs (FIG. 12), long dsRNA): 71 % of control

B3: EnCYP51: long dsRNA against E. necator CYP51 (target SEQ ID NO:182) (nucleic acid)
chain: TGTCAACGCCGAAGAGATTTACACTAATTTAACAACTCCGGTCTTTGGAAGAGATGTTGTATTTGATTGTCCAAATTCCAAACTCATGGAACAAAAAAAGTTTATGAAAACGGCTCTTACCATTGAAGCGTTCCATTCCTATGTAACAATAATACAAAATGAAGTAGAGGCATATATAAACAATTGCGTTAGCTTTCAGGGTGAGAGTGGCACAGTAAACATCTCAAAAGTTATGGCGGAAATCACTA
modifications: misc_feature 1..248: note = Inhibitory double stranded RNA; listed as RNA
- visual powdery mildew coverage and density: Less powdery mildew density
- visual powdery mildew coverage and density (listed as E. necator CYP51 dsRNA): less powdery mildew coverage and density
- reduction in spore production (grapevine leaf disc assay, long dsRNA): 45%
- reduction in spore production (grapevine whole plant assay, long dsRNA): 62%
